{"source": "patent US7228238B2", "about": "“Algorithmic design of peptides for binding and/or modulation of the functions of receptors and/or other proteins” (Cielo Institute, Inc., priority 2000, dated 2007)", "key": {"[1]": {"target": "T1, human muscarinic M1 receptor (Homo sapiens, UniProt P11229)", "T1 construct": "expressed in transfected cells; host or cells: CHO-K1 cells; expression vector pcDNA3; calcium phosphate method; geneticin selection", "T1 sequence (P11229 1-460)": "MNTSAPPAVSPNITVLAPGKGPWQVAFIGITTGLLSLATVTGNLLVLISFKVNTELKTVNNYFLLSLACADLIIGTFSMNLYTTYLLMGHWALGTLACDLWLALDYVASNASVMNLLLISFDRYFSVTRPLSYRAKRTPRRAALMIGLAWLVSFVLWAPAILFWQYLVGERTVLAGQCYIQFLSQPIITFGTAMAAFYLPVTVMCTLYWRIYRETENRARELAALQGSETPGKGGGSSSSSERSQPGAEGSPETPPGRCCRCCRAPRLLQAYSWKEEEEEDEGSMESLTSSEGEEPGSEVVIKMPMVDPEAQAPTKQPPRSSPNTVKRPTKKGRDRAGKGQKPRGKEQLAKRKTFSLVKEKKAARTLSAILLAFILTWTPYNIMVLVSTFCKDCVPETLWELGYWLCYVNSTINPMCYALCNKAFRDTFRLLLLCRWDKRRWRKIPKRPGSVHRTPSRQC", "assay": "EAR test system, response to carbachol, M1 receptor-transfected CHO-K1 cells", "type": "cell-based", "settings": "for MODULATORY EFFECT: significance class of effect on EAR due to carbachol", "procedure": "(§1) Peptides derived from receptor protein systems other than the D2DA receptor were also tested for their effects on their respective receptors. For the human muscarinic M1 receptor, CHO cells were transfected with the muscarinic M1 receptor cDNA derived from a human cDNA library essentially as described by Buckley et al. (Mol. Pharmacol. 1989 35:469–476). Briefly, the coding region of the M1 receptor was obtained from a human cDNA library and cloned into the expression vector pcDNA3 (Invitrogen, San Diego, Calif.). CHO-K1 cells were transformed with the construct, using the calcium phosphate method. Stably expressing transformants were obtained in the presence of 250 μg/ml geneticin. Transformed cell lines expressing the human NGF receptor also were obtained. The effects of the peptides derived by the methods of the present invention on the activities of the corresponding receptors in the transformed cell lines were evaluated in the same manner as described above for the D2DA-targeted algorithmically derived peptides, using the EAR test system."}, "human NGF receptor": {"system": "human NGF receptor", "assay": "EAR test system, transformed cell line expressing the NGF receptor, response to NGF", "type": "cell-based", "settings": "for MODULATORY EFFECT: significance class of change in EAR response to NGF; for MODULATORY EFFECT / DIRECT EFFECT: NGF receptor cell line; for DIRECT EFFECT: significance class of change in EAR; for effect on EAR response to NGF: NGF receptor inhibition assay, PC-12 cells", "procedure": "as §1\nThe hydrophobic wavelength of a peptide containing L-amino acids is the same as a peptide containing D-amino acids in which the sequence is inverted. Such “retro-inverso” peptides have been previously described (Chorev, M. and Goodman, M. (1995) Trends Biotechnol. 13:438–445), but their use as mode-matched binding peptides has never before been contemplated. A retro-inverso peptide containing D-amino acids and having the sequence […] was synthesized (SEQ ID NO:97). This sequence of this peptide is inverted from that of peptide of SEQ ID NO:27, used in the NGF receptor inhibition assay. […] The peptide of SEQ ID NO:97 was tested in the same assay as the L-amino acid, forward sequence peptide of SEQ ID NO: 27."}, "[2]": {"target": "T2, human long isoform D2DA receptor (Homo sapiens, UniProt P14416)", "T2 sequence (P14416 whole entry, canonical isoform)": "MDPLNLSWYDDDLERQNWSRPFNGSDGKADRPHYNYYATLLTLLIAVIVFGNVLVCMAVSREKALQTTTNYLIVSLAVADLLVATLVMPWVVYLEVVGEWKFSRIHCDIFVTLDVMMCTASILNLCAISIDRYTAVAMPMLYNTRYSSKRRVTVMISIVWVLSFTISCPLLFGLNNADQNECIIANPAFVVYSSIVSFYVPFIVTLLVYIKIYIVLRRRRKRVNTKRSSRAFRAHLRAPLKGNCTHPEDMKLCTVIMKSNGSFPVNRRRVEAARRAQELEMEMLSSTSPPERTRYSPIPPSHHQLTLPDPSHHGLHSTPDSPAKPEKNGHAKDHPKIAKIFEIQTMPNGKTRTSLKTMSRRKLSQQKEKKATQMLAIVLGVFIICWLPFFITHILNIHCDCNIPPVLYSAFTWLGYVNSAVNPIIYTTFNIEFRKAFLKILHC", "assay": "external acidification rate (EAR) by microphysiometry, response to dopamine, D2DA receptor-transfected mouse LtK cell system", "settings": "for influence on dopamine-induced increment in total milli-pH units (EAR response to dopamine) / ρ of one-tailed t-test paired within chamber, peptide influence on EAR response to dopamine: LtK system, dopamine ≈1 μM; for influence on dopamine-induced increment in total milli-pH units (EAR response to dopamine) / ρ of one-tailed t-test paired within chamber, peptide influence on EAR response to dopamine / MODULATORY EFFECT LtK / DIRECT EFFECT LtK: peptide 1 μM; for MODULATORY EFFECT LtK: significance class of effect on EAR response to dopamine ≈1 μM; for MODULATORY EFFECT LtK / DIRECT EFFECT LtK: D2DA-transfected LtK cells; for DIRECT EFFECT LtK: significance class of effect on EAR", "experimental": "(§2) Both cell systems were stably transfected with human long isoform D2DA receptor cDNA, which had been isolated from a human striatal cDNA library, sequenced and subcloned into the expression vector pRC/RSV (Invitrogen). […] Both systems were grown to confluence in DMEM containing 10% FBS. The cells were serum-starved 18–24 hours prior to use, and then assayed for EAR using a microphysiometer (Cytosensor; Molecular Devices, Sunnyvale, Calif.) in low buffering DMEM with 0.1% culture grade BSA.\n(§3) The determination of EAR by microphysiometry involves a proton-sensitive silicon semiconductor photocurrent-driven sensor which measures changes in EAR resulting from effector-evoked alterations in cellular glycolytic and respiratory energy metabolism and/or alterations in sodium-hydrogen exchanges across cellular membranes. Protonic H^+, generated by such energy metabolism or exchanges, neutralizes the charge on the surface of the semiconductor, reducing the photocurrent produced at a rate linearly related to H^+production.\n(§4) The microphysiometer monitors pH in flow-through chambers containing the receptor-transfected cells. Generally, if the cells lines used are adherent cell lines, the cells are seeded into “capsule cups”. If the cell lines are non-adherent cell lines, then the cells are immobilized in a fibrin matrix. For all microphysiometer runs, modified low buffering DMEM containing 0.1% BSA is pumped across the cells at a rate of approximately 100 μL/min, during which time the pH of the microenvironment surrounding the sensor surface is maintained at a relatively constant value. The measurement of the acid output rate of the cells, termed the acidification rate, is made when the fluid flow is periodically halted to allow buildup of acidic metabolites in the chamber, resulting in an alteration in the pH of the fluid. The pH is measured in millivolts, and converted to milli-pH units. The changes in pH are expressed as changes in milli-pH units per minute following the linear, time-dependent buildup of H^+during intermittent periods of pump arrest followed by washout. […] Ligand induced, receptor-mediated increases in cell metabolic and Na^+—H^+membrane regulatory activity is seen as an increase in the acidification rate.\n(§5) Small Kolmogorov-Smirnov distances supported the assumption of normality in all of the data sets, so within chamber-paired, one-tailed t-tests with a significance criterion of ρ=0.05 were used."}, "[3]": {"target": "T2, human long isoform D2DA receptor", "assay": "external acidification rate (EAR) by microphysiometry, response to dopamine, D2DA receptor-transfected CHO cell system", "settings": "peptide 1 μM; for MODULATORY EFFECT CHO: significance class of effect on EAR response to dopamine ≈1 μM; for MODULATORY EFFECT CHO / DIRECT EFFECT CHO: D2DA-transfected CHO cells; for DIRECT EFFECT CHO: significance class of effect on EAR", "experimental": "as §2, §3, §4, §5"}, "[4]": {"settings": "CHO cell system, dopamine ≈1 μM"}}, "data": [{"substance": "14 (FSFGVKSWQYHALGY) [compound 14]", "values": [{"measurement": "MODULATORY EFFECT", "setting": "[1]", "value": "* (* 0.01 < ρ ≦ 0.05)"}]}, {"substance": "30 (HFVRNERTHFDVSAL) [compound 30]", "values": [{"measurement": "MODULATORY EFFECT", "setting": "human NGF receptor", "value": "* (* 0.01 < ρ ≦ 0.05)"}, {"measurement": "DIRECT EFFECT", "setting": "human NGF receptor", "value": "* (* 0.01 < ρ ≦ 0.05)"}]}, {"substance": "ERNRKPYRPKNKYLL [E . . . PY]", "values": [{"measurement": "influence on dopamine-induced increment in total milli-pH units (EAR response to dopamine)", "setting": "[2]", "value": "statistically significant activation"}]}, {"substance": "H-SHQRWEYKGVNCIVY-OH [SEQ ID NO:1]", "values": [{"measurement": "EAR dose response curves", "setting": "[2]; LtK cells, dopamine 10^−8.5M to 10^−5.5M, peptide 10 nM to 3 μM", "value": "asymptotic sigmoidal kinetics, suggestive of positive cooperativity"}, {"measurement": "influence on dopamine-induced increment in total milli-pH units (EAR response to dopamine)", "setting": "[2]", "value": "significantly potentiated"}, {"measurement": "ρ of one-tailed t-test paired within chamber, peptide influence on EAR response to dopamine", "setting": "[2]", "value": 0.0009}, {"measurement": "influence on dopamine-induced increment in total milli-pH units (EAR response to dopamine)", "setting": "[3]; [4]", "value": "significantly potentiated"}, {"measurement": "ρ of one-tailed t-test paired within chamber, peptide influence on EAR response to dopamine", "setting": "[3]; [4]", "value": "< 0.0001"}]}, {"substance": "25 (HYCASADPRIHKNAL) [compound 25]", "values": [{"measurement": "MODULATORY EFFECT", "setting": "human NGF receptor", "value": "*** (*** ρ ≦ 0.001)"}]}, {"substance": "15 (ITFTVKGLTLAAFTY) [compound 15]", "values": [{"measurement": "MODULATORY EFFECT", "setting": "[1]", "value": "*** (*** ρ ≦ 0.001)"}]}, {"substance": "24 (RFVASAATEIEVNRL) [compound 24]", "values": [{"measurement": "MODULATORY EFFECT", "setting": "human NGF receptor", "value": "** (** 0.001 < ρ ≦ 0.01)"}]}, {"substance": "28 (RFVDNDATDIEKGRI) [compound 28]", "values": [{"measurement": "MODULATORY EFFECT", "setting": "human NGF receptor", "value": "*** (*** ρ ≦ 0.001)"}, {"measurement": "DIRECT EFFECT", "setting": "human NGF receptor", "value": "* (* 0.01 < ρ ≦ 0.05)"}]}, {"substance": "29 (RFVRGDRNHFDCGEL) [compound 29]", "values": [{"measurement": "MODULATORY EFFECT", "setting": "human NGF receptor", "value": "*** (*** ρ ≦ 0.001)"}, {"measurement": "DIRECT EFFECT", "setting": "human NGF receptor", "value": "* (* 0.01 < ρ ≦ 0.05)"}]}, {"substance": "23 (DLCRSARSDIEVTEY) [compound 23]", "values": [{"measurement": "MODULATORY EFFECT", "setting": "human NGF receptor", "value": "*** (*** ρ ≦ 0.001)"}, {"measurement": "DIRECT EFFECT", "setting": "human NGF receptor", "value": "** (** 0.001 < ρ ≦ 0.01)"}]}, {"substance": "3 (ERNRKPYRPKNKYLL) [compound 3]", "values": [{"measurement": "MODULATORY EFFECT LtK", "setting": "[2]", "value": "*** (***ρ ≦ 0.001)"}]}, {"substance": "17 (FNLSVKQWNYRAYNL) [compound 17]", "values": [{"measurement": "MODULATORY EFFECT", "setting": "[1]", "value": "** (** 0.001 < ρ ≦ 0.01)"}]}, {"substance": "H-THQAFHYCNKQCLVI-OH (cysteine pairing not given here) [SEQ ID NO:2]", "values": [{"measurement": "influence on dopamine-induced increment in total milli-pH units (EAR response to dopamine)", "setting": "[2]", "value": "did not significantly potentiate"}, {"measurement": "ρ of one-tailed t-test paired within chamber, peptide influence on EAR response to dopamine", "setting": "[2]", "value": "> 0.05"}, {"measurement": "influence on dopamine-induced increment in total milli-pH units (EAR response to dopamine)", "setting": "[3]; [4]", "value": "did not significantly potentiate"}]}, {"substance": "1 (SHQRWEYKGVNCIVY) [compound 1]", "values": [{"measurement": "MODULATORY EFFECT LtK", "setting": "[2]", "value": "*** (***ρ ≦ 0.001)"}, {"measurement": "DIRECT EFFECT LtK", "setting": "[2]", "value": "*** (***ρ ≦ 0.001)"}, {"measurement": "MODULATORY EFFECT CHO", "setting": "[3]", "value": "*** (***ρ ≦ 0.001)"}, {"measurement": "DIRECT EFFECT CHO", "setting": "[3]", "value": "*** (***ρ ≦ 0.001)"}]}, {"substance": "ERNRKPLRPKNKYLI [E . . . PL]", "values": [{"measurement": "influence on dopamine-induced increment in total milli-pH units (EAR response to dopamine)", "setting": "[2]", "value": "statistically significant activation"}]}, {"substance": "16 (ISFNKCTWSFERYSL) [compound 16]", "values": [{"measurement": "MODULATORY EFFECT", "setting": "[1]", "value": "* (* 0.01 < ρ ≦ 0.05)"}]}, {"substance": "7 (SHQAWRYKNVNCYVI) [compound 7]", "values": [{"measurement": "MODULATORY EFFECT LtK", "setting": "[2]", "value": "*** (***ρ ≦ 0.001)"}]}, {"substance": "27 (DIKATEATDIEKGHL) [compound 27]", "values": [{"measurement": "MODULATORY EFFECT", "setting": "human NGF receptor", "value": "*** (*** ρ ≦ 0.001)"}]}, {"substance": "LHGKEIDTAETAKID [SEQ ID NO:97]", "values": [{"measurement": "effect on EAR response to NGF", "setting": "human NGF receptor", "value": "also down-regulated the EAR response of PC-12 cells to NGF, to an extent comparable"}]}, {"substance": "13 (FSFQCKSINYEALGY) [compound 13]", "values": [{"measurement": "DIRECT EFFECT", "setting": "[1]; significance class of effect on EAR", "value": "** (** 0.001 < ρ ≦ 0.01)"}, {"measurement": "MODULATORY EFFECT", "setting": "[1]", "value": "** (** 0.001 < ρ ≦ 0.01)"}]}, {"substance": "8 (GETAFRYVNCNVYVYI) [compound 8]", "values": [{"measurement": "DIRECT EFFECT LtK", "setting": "[2]", "value": "*** (***ρ ≦ 0.001)"}, {"measurement": "DIRECT EFFECT CHO", "setting": "[3]", "value": "** (**0.001 < ρ ≦ 0.01)"}]}, {"substance": "5 (SHTAYHWMSCGKIVI) [compound 5]", "values": [{"measurement": "MODULATORY EFFECT LtK", "setting": "[2]", "value": "* (*0.01 < ρ ≦ 0.05)"}, {"measurement": "MODULATORY EFFECT CHO", "setting": "[3]", "value": "*** (***ρ ≦ 0.001)"}]}, {"substance": "H-DIKATEATDIEKGHL-OH [SEQ ID NO:27]", "values": [{"measurement": "effect on EAR response to NGF", "setting": "human NGF receptor", "value": "significantly down-regulated"}]}, {"substance": "26 (DFVDGAAGRLHKGEY) [compound 26]", "values": [{"measurement": "MODULATORY EFFECT", "setting": "human NGF receptor", "value": "** (** 0.001 < ρ ≦ 0.01)"}]}, {"substance": "4 (ERNKLNYKNKNKYIL) [compound 4]", "values": [{"measurement": "MODULATORY EFFECT LtK", "setting": "[2]", "value": "*** (***ρ ≦ 0.001)"}]}]}
